# Patent US20260248892A1 (Sanofi, published 2026)
# Where a chain is given by its changes, count along the chain named.
# B1: scl-Fc fusion protein INS021 (Fc fusion)
# chain: SFVNQHLCGSHLVEALELVCGERGFHYTPKTEEYPGDVGIVEQCCTSICSLSQLENYCGGEAEDLQVGQVELGGGPGAGSLQLALEGSLQGGPSVFLFPPKPKDTLMISRTPEVTCVVVDVSHEDPEVKFNWYVDGVEVHNAKTKPREEQYNSTYRVVSVLTVLHQDWLNGKEYKCKVSNKALPAPIEKTISKAKGQPREPQVYTLPPSRDELTKNQVSLTCLVKGFYPSDIAVEWESNGQPENNYKTTPPVLDSDGSFFLYSKLTVDKSRWQQGNVFSCSVMHEALHNHYTQKSLSLSPGGGGGSAESKYGPPCPPCPA
# B2: scl-Fc fusion protein INS005 (Fc fusion)
# chain: SFVNQHLCGSHLVEALHLVCGERGFAYTDKTEEYPGDVGIVEQCCTSICSLEQLENYCGGEAEDLQVGQVELGGGPGAGSLQPEGSLQGGPSVFLFPPKPKDTLMISRTPEVTCVVVDVSHEDPEVKFNWYVDGVEVHNAKTKPREEQYNSTYRVVSVLTVLHQDWLNGKEYKCKVSNKALPAPIEKTISKAKGQPREPQVYTLPPSRDELTKNQVSLTCLVKGFYPSDIAVEWESNGQPENNYKTTPPVLDSDGSFFLYSKLTVDKSRWQQGNVFSCSVMHEALHNHYTQKSLSLSPGGGGGSAESKYGPPCPPCPA
# B3: scl-Fc fusion protein INS015 (Fc fusion)
# chain: B2 chain with A26H, D29P, E52S
# B4: scl-Fc fusion protein INS010 (Fc fusion)
# chain: B2 chain with D29P
# B5: scl-Fc fusion protein INS008 (Fc fusion)
# chain: B2 chain with H17E, A26H, E32G, E33S, D37G
# B6: scl-Fc fusion protein INS006 (Fc fusion)
# chain: B2 chain with H17E, A26H
# B7: scl-Fc fusion protein INS014 (Fc fusion)
# chain: B2 chain with A26H, D29P, E32G, E33S, D37G, E52S, N56D
# B8: scl-Fc fusion protein INS019 (Fc fusion)
# chain: B2 chain with H17E, A26H, D29P, E32G, E33S, D37G, E52S, N56D
# B9: scl-Fc fusion protein INS009 (Fc fusion)
# chain: B2 chain with H17E, A26H, D29P, E32G, E33S, D37G
# B10: scl-Fc fusion protein INS007 (Fc fusion)
# chain: B2 chain with E32G, E33S, D37G
# B11: scl-Fc fusion protein INS017 (Fc fusion)
# chain: B2 chain with A26H, D29P, E32G, E33S, D37G, E52S
# B12: scl-Fc fusion protein INS011 (Fc fusion)
# chain: B2 chain with D29P, E32G, E33S, D37G
# B13: scl-Fc fusion protein INS002 (Fc fusion)
# chain: FVNQHLCGSHLVEALYLVCGERGFFYTDKTEEYPGDVGIVEQCCTSICSLEQLENYCGGEAEDLQVGQVELGGGPGAGSLQPLALEGSLQGGPSVFLFPPKPKDTLMISRTPEVTCVVVDVSHEDPEVKFNWYVDGVEVHNAKTKPREEQYNSTYRVVSVLTVLHQDWLNGKEYKCKVSNKALPAPIEKTISKAKGQPREPQVYTLPPSRDELTKNQVSLTCLVKGFYPSDIAVEWESNGQPENNYKTTPPVLDSDGSFFLYSKLTVDKSRWQQGNVFSCSVMHEALHNHYTQKSLSLSPGGGGGSAESKYGPPCPPCPA
# B14: scl-Fc fusion protein INS012 (Fc fusion)
# chain: FVNQHLCGSHLVEALHLVCGERGFHYTPKTEEYPGDVGIVEQCCTSICSLSQLEDYCGGEAEDLQVGQVELGGGPGAGSLQPEGSLQGGPSVFLFPPKPKDTLMISRTPEVTCVVVDVSHEDPEVKFNWYVDGVEVHNAKTKPREEQYNSTYRVVSVLTVLHQDWLNGKEYKCKVSNKALPAPIEKTISKAKGQPREPQVYTLPPSRDELTKNQVSLTCLVKGFYPSDIAVEWESNGQPENNYKTTPPVLDSDGSFFLYSKLTVDKSRWQQGNVFSCSVMHEALHNHYTQKSLSLSPGGGGGSAESKYGPPCPPCPA
# B15: scl-Fc fusion protein INS020 (Fc fusion)
# chain: B14 chain with H16E, D55N
# B16: scl-Fc fusion protein INS013 (Fc fusion)
# chain: B14 chain with E31G, E32S, D36G
# B17: scl-Fc fusion protein INS016 (Fc fusion)
# chain: B14 chain with E31G, E32S, D36G, D55N
# B18: scl-Fc fusion protein INS018 (Fc fusion)
# chain: B14 chain with H16E, E31G, E32S, D36G
# Molecular target: human insulin receptor isoform B (human, UniProt P06213 28-1382)
# Assay: cell-based or functional assay
row,hIR-B-phosphorylation [EC50 nM] mean [nM],Binder
1,288,B1
2,522,B2
3,56.3,B3
4,501,B4
5,90,B5
6,388,B6
7,47.9,B7
8,292,B8
9,94.1,B9
10,57.3,B10
11,36,B11
12,110,B12
13,22.8,B13
14,178,B14
15,185,B15
16,57.2,B16
17,58.8,B17
18,260,B18

# Molecular target: human insulin receptor isoform A (human, UniProt P06213-2 28-1370)
# Assay: cell-based or functional assay
row,hIR-A phosphorylation [EC50 nM] mean [nM],Binder
1,447,B1
2,1510,B2
3,211,B3
4,1780,B4
5,1410,B5
6,1110,B6
7,300,B7
8,666,B8
9,332,B9
10,82.5,B10
11,70.6,B11
12,414,B12
13,36,B13
14,466,B14
15,718,B15
16,5.58,B16
17,180,B17
18,536,B18

# Molecular target: Rat IR (rat, UniProt P15127 27-1383)
# Sequence (P15127 27-1383): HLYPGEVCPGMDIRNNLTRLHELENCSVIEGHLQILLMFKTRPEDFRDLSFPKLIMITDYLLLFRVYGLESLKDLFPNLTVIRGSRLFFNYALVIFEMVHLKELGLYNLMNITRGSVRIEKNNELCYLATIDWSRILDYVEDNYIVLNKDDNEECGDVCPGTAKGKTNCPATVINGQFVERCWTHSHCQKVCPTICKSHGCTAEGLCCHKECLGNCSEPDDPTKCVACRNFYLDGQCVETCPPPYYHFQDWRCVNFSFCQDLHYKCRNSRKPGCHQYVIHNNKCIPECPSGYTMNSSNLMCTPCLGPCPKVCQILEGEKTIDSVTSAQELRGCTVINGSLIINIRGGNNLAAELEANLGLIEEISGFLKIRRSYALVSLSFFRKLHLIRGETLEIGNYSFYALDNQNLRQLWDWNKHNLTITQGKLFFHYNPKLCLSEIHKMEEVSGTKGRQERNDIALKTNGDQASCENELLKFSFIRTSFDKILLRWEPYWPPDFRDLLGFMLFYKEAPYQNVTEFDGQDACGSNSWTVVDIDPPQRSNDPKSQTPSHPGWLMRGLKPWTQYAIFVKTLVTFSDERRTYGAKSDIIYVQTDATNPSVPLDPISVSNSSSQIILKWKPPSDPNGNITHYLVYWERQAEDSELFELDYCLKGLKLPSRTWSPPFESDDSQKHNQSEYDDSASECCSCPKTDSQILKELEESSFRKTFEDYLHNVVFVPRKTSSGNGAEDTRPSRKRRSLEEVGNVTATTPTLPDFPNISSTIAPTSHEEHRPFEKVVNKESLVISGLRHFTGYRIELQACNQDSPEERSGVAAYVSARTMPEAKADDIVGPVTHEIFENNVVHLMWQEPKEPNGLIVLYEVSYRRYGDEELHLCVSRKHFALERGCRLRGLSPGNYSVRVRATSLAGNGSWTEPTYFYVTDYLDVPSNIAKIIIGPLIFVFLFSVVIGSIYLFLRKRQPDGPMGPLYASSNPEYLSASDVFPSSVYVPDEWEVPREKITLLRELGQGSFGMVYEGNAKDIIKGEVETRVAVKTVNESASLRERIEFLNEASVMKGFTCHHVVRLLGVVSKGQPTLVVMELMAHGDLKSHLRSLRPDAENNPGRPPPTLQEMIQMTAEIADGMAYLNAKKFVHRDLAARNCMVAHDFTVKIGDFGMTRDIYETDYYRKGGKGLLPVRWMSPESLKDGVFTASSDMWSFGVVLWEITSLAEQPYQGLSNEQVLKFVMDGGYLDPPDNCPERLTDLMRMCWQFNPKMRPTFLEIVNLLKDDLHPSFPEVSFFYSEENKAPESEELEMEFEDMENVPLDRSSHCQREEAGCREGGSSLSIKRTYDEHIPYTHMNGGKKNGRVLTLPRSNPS
# Assay: cell-based or functional assay
row,Rat IR phosphorylation [EC50 nM] mean [nM],Binder
1,620,B1
2,1570,B2
3,95.7,B3
4,390,B4
5,440,B5
6,286,B6
7,92.8,B7
8,2200,B8
9,137,B9
10,54.8,B10
11,53.6,B11
12,169,B12
13,32.1,B13
14,124,B14
15,247,B15
16,23.6,B16
17,85.5,B17
18,233,B18

# Molecular target: Pig IR (pig, UniProt F1SCL0 28-1382)
# Assay: cell-based or functional assay
row,Pig IR phosphorylation [EC 50 nM] mean [nM],Binder
1,56.7,B1
2,61.4,B2
3,33.5,B3
4,23.5,B4
5,21.2,B5
6,52.5,B6
7,28.4,B7
8,43,B8
9,36.6,B9
10,10.8,B10
11,26.3,B11
12,39.6,B12
13,8.12,B13
14,50.6,B14
15,157,B15
16,4.17,B16
17,41.5,B17
18,60,B18
